In patent publication US20230021388A1 (VELOSBIO, published 2023):

Molecular target: T1, recombinant human ROR1 extracellular domain (human, UniProt Q01973 30-406)
T1 construct: biotinylated for the filter lifts; also called huROR1-ECD; human ROR1-ECD
Test: capture filter lift
Protocol: Subsequently, the filter was applied to the agar plates as described above. For detection of antigen binding, the filter was rinsed briefly in PBS, and transferred to biotinylated huROR1-ECD (ACROBiosystems, cat. #RO1-H522y) in 5% M-P.
Filters were incubated with 2.3 nM biotinylated ROR1 diluted in 5% M-P for 2 h at 25° C. with constant agitation, and washed 5 times, 2 minutes each wash, with constant agitation in PBS-T. Alternatively, filters were washed more rapidly using a squirt bottle and sintered glass funnel for vacuum filtration. The filters were transferred to 10 mL of High Sensitivity Neutravidin, HRP conjugate (Thermo Scientific, cat. #31030) diluted 5000-fold in 1% BSA in PBS and incubated for 1 h at 25° C. The filters were then washed 5 times in PBS-T and were developed with 1-Step Ultra TMB-Blotting.
All libraries were initially screened by capture lift to identify variants with improved binding. The capture lift assay, described in Example 1, enables the filter lift assay to discern variants that bind antigen more strongly based on the staining intensity. In order to determine the optimal concentration of antigen to use for screening, biotinylated huROR1-ECD was titrated on a capture lift of Ab1 Fab. Binding to Ab1 was clearly visible at antigen concentrations ≥23 nM and the signal was diminished at lower huROR1 concentrations. […] In addition, for more stringent screening, filters were probed with lower concentrations of antigen and/or development of the filter was terminated earlier, before the Ab1 staining was visible. […] In this example, approximately 250 library variants were plated. Twelve variants clearly bound huROR1 (FIG. 4, numbered).

T1 sequence (Q01973 30-406 limits assumed): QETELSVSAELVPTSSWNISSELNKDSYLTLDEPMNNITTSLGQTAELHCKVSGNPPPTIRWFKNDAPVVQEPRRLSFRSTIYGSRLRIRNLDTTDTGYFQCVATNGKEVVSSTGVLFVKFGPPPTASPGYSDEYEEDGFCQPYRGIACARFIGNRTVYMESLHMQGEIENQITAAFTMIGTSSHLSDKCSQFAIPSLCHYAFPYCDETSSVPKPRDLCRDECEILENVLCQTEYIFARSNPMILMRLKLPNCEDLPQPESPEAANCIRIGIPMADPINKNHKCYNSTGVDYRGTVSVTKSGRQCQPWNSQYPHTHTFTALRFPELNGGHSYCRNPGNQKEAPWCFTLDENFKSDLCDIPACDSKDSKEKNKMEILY

| binding result | Binder |
| --- | --- |
| binds | Ab1 Fab variant H3 Y138V (Fab, V domains shown, Fab) VH: QVQLQESGPGLVKPSQTLSLTCTVSGYAFTAYNIHWVRQAPGQGLEWMGSFDPYDGGSSYNQKFKDRLTISKDTSKNQVVLTMTNMDPVDTATYYCARGWYYFDVWGHGTLVTVSS VL: DIVMTQTPLSLPVTPGEPASISCRASKSISKYLAWYQQKPGQAPRLLIYSGSTLQSGIPPRFSGSGYGTDFTLTINNIESEDAAYYFCQQHDESPYTFGEGTKVEIK |
| binds | Ab1 Fab variant L3 Q107S (Fab, V domains shown, Fab) VH: QVQLQESGPGLVKPSQTLSLTCTVSGYAFTAYNIHWVRQAPGQGLEWMGSFDPYDGGSSYNQKFKDRLTISKDTSKNQVVLTMTNMDPVDTATYYCARGWYYFDYWGHGTLVTVSS VL: DIVMTQTPLSLPVTPGEPASISCRASKSISKYLAWYQQKPGQAPRLLIYSGSTLQSGIPPRFSGSGYGTDFTLTINNIESEDAAYYFCSQHDESPYTFGEGTKVEIK |
| binds | Ab1 Fab variant L3 E111L (Fab, V domains shown, Fab) VH: QVQLQESGPGLVKPSQTLSLTCTVSGYAFTAYNIHWVRQAPGQGLEWMGSFDPYDGGSSYNQKFKDRLTISKDTSKNQVVLTMTNMDPVDTATYYCARGWYYFDYWGHGTLVTVSS VL: DIVMTQTPLSLPVTPGEPASISCRASKSISKYLAWYQQKPGQAPRLLIYSGSTLQSGIPPRFSGSGYGTDFTLTINNIESEDAAYYFCQQHDLSPYTFGEGTKVEIK |
| binds | Ab1 Fab variant L3 H109Q (Fab, V domains shown, Fab) VH: QVQLQESGPGLVKPSQTLSLTCTVSGYAFTAYNIHWVRQAPGQGLEWMGSFDPYDGGSSYNQKFKDRLTISKDTSKNQVVLTMTNMDPVDTATYYCARGWYYFDYWGHGTLVTVSS VL: DIVMTQTPLSLPVTPGEPASISCRASKSISKYLAWYQQKPGQAPRLLIYSGSTLQSGIPPRFSGSGYGTDFTLTINNIESEDAAYYFCQQQDESPYTFGEGTKVEIK |
| binds | Ab1 Fab variant L3 S135G (Fab, V domains shown, Fab) VH: QVQLQESGPGLVKPSQTLSLTCTVSGYAFTAYNIHWVRQAPGQGLEWMGSFDPYDGGSSYNQKFKDRLTISKDTSKNQVVLTMTNMDPVDTATYYCARGWYYFDYWGHGTLVTVSS VL: DIVMTQTPLSLPVTPGEPASISCRASKSISKYLAWYQQKPGQAPRLLIYSGSTLQSGIPPRFSGSGYGTDFTLTINNIESEDAAYYFCQQHDEGPYTFGEGTKVEIK |
| binds | Ab1 Fab variant L3 S135P (Fab, V domains shown, Fab) VH: QVQLQESGPGLVKPSQTLSLTCTVSGYAFTAYNIHWVRQAPGQGLEWMGSFDPYDGGSSYNQKFKDRLTISKDTSKNQVVLTMTNMDPVDTATYYCARGWYYFDYWGHGTLVTVSS VL: DIVMTQTPLSLPVTPGEPASISCRASKSISKYLAWYQQKPGQAPRLLIYSGSTLQSGIPPRFSGSGYGTDFTLTINNIESEDAAYYFCQQHDEPPYTFGEGTKVEIK |
| binds | Ab1 Fab variant L3 T138S (Fab, V domains shown, Fab) VH: QVQLQESGPGLVKPSQTLSLTCTVSGYAFTAYNIHWVRQAPGQGLEWMGSFDPYDGGSSYNQKFKDRLTISKDTSKNQVVLTMTNMDPVDTATYYCARGWYYFDYWGHGTLVTVSS VL: DIVMTQTPLSLPVTPGEPASISCRASKSISKYLAWYQQKPGQAPRLLIYSGSTLQSGIPPRFSGSGYGTDFTLTINNIESEDAAYYFCQQHDESPYSFGEGTKVEIK |
| binds | Ab1 Fab variant L3 S135H (Fab, V domains shown, Fab) VH: QVQLQESGPGLVKPSQTLSLTCTVSGYAFTAYNIHWVRQAPGQGLEWMGSFDPYDGGSSYNQKFKDRLTISKDTSKNQVVLTMTNMDPVDTATYYCARGWYYFDYWGHGTLVTVSS VL: DIVMTQTPLSLPVTPGEPASISCRASKSISKYLAWYQQKPGQAPRLLIYSGSTLQSGIPPRFSGSGYGTDFTLTINNIESEDAAYYFCQQHDEHPYTFGEGTKVEIK |
| binds | Ab1 Fab variant L3 Q108R (Fab, V domains shown, Fab) VH: QVQLQESGPGLVKPSQTLSLTCTVSGYAFTAYNIHWVRQAPGQGLEWMGSFDPYDGGSSYNQKFKDRLTISKDTSKNQVVLTMTNMDPVDTATYYCARGWYYFDYWGHGTLVTVSS VL: DIVMTQTPLSLPVTPGEPASISCRASKSISKYLAWYQQKPGQAPRLLIYSGSTLQSGIPPRFSGSGYGTDFTLTINNIESEDAAYYFCQRHDESPYTFGEGTKVEIK |
| binds | Ab1 Fab variant L3 H109N (Fab, V domains shown, Fab) VH: QVQLQESGPGLVKPSQTLSLTCTVSGYAFTAYNIHWVRQAPGQGLEWMGSFDPYDGGSSYNQKFKDRLTISKDTSKNQVVLTMTNMDPVDTATYYCARGWYYFDYWGHGTLVTVSS VL: DIVMTQTPLSLPVTPGEPASISCRASKSISKYLAWYQQKPGQAPRLLIYSGSTLQSGIPPRFSGSGYGTDFTLTINNIESEDAAYYFCQQNDESPYTFGEGTKVEIK |
| binds | Ab1 Fab variant L3 Q108L (Fab, V domains shown, Fab) VH: QVQLQESGPGLVKPSQTLSLTCTVSGYAFTAYNIHWVRQAPGQGLEWMGSFDPYDGGSSYNQKFKDRLTISKDTSKNQVVLTMTNMDPVDTATYYCARGWYYFDYWGHGTLVTVSS VL: DIVMTQTPLSLPVTPGEPASISCRASKSISKYLAWYQQKPGQAPRLLIYSGSTLQSGIPPRFSGSGYGTDFTLTINNIESEDAAYYFCQLHDESPYTFGEGTKVEIK |
| binds | Ab1 Fab variant L3 T138F (Fab, V domains shown, Fab) VH: QVQLQESGPGLVKPSQTLSLTCTVSGYAFTAYNIHWVRQAPGQGLEWMGSFDPYDGGSSYNQKFKDRLTISKDTSKNQVVLTMTNMDPVDTATYYCARGWYYFDYWGHGTLVTVSS VL: DIVMTQTPLSLPVTPGEPASISCRASKSISKYLAWYQQKPGQAPRLLIYSGSTLQSGIPPRFSGSGYGTDFTLTINNIESEDAAYYFCQQHDESPYFFGEGTKVEIK |
| binds | Ab1 Fab variant L3 D110H (Fab, V domains shown, Fab) VH: QVQLQESGPGLVKPSQTLSLTCTVSGYAFTAYNIHWVRQAPGQGLEWMGSFDPYDGGSSYNQKFKDRLTISKDTSKNQVVLTMTNMDPVDTATYYCARGWYYFDYWGHGTLVTVSS VL: DIVMTQTPLSLPVTPGEPASISCRASKSISKYLAWYQQKPGQAPRLLIYSGSTLQSGIPPRFSGSGYGTDFTLTINNIESEDAAYYFCQQHHESPYTFGEGTKVEIK |
| binds | Ab1 Fab variant L3 Y137V (Fab, V domains shown, Fab) VH: QVQLQESGPGLVKPSQTLSLTCTVSGYAFTAYNIHWVRQAPGQGLEWMGSFDPYDGGSSYNQKFKDRLTISKDTSKNQVVLTMTNMDPVDTATYYCARGWYYFDYWGHGTLVTVSS VL: DIVMTQTPLSLPVTPGEPASISCRASKSISKYLAWYQQKPGQAPRLLIYSGSTLQSGIPPRFSGSGYGTDFTLTINNIESEDAAYYFCQQHDESPVTFGEGTKVEIK |
| binds | Ab1 Fab variant L3 D110N (Fab, V domains shown, Fab) VH: QVQLQESGPGLVKPSQTLSLTCTVSGYAFTAYNIHWVRQAPGQGLEWMGSFDPYDGGSSYNQKFKDRLTISKDTSKNQVVLTMTNMDPVDTATYYCARGWYYFDYWGHGTLVTVSS VL: DIVMTQTPLSLPVTPGEPASISCRASKSISKYLAWYQQKPGQAPRLLIYSGSTLQSGIPPRFSGSGYGTDFTLTINNIESEDAAYYFCQQHNESPYTFGEGTKVEIK |
| binds | Ab1 Fab variant L3 Y137T (Fab, V domains shown, Fab) VH: QVQLQESGPGLVKPSQTLSLTCTVSGYAFTAYNIHWVRQAPGQGLEWMGSFDPYDGGSSYNQKFKDRLTISKDTSKNQVVLTMTNMDPVDTATYYCARGWYYFDYWGHGTLVTVSS VL: DIVMTQTPLSLPVTPGEPASISCRASKSISKYLAWYQQKPGQAPRLLIYSGSTLQSGIPPRFSGSGYGTDFTLTINNIESEDAAYYFCQQHDESPTTFGEGTKVEIK |
| binds | Ab1 Fab variant L3 S135V (Fab, V domains shown, Fab) VH: QVQLQESGPGLVKPSQTLSLTCTVSGYAFTAYNIHWVRQAPGQGLEWMGSFDPYDGGSSYNQKFKDRLTISKDTSKNQVVLTMTNMDPVDTATYYCARGWYYFDYWGHGTLVTVSS VL: DIVMTQTPLSLPVTPGEPASISCRASKSISKYLAWYQQKPGQAPRLLIYSGSTLQSGIPPRFSGSGYGTDFTLTINNIESEDAAYYFCQQHDEVPYTFGEGTKVEIK |
| binds | Ab1 Fab variant L3 Q108A (Fab, V domains shown, Fab) VH: QVQLQESGPGLVKPSQTLSLTCTVSGYAFTAYNIHWVRQAPGQGLEWMGSFDPYDGGSSYNQKFKDRLTISKDTSKNQVVLTMTNMDPVDTATYYCARGWYYFDYWGHGTLVTVSS VL: DIVMTQTPLSLPVTPGEPASISCRASKSISKYLAWYQQKPGQAPRLLIYSGSTLQSGIPPRFSGSGYGTDFTLTINNIESEDAAYYFCQAHDESPYTFGEGTKVEIK |
| binds | Ab1 Fab variant L3 E111I (Fab, V domains shown, Fab) VH: QVQLQESGPGLVKPSQTLSLTCTVSGYAFTAYNIHWVRQAPGQGLEWMGSFDPYDGGSSYNQKFKDRLTISKDTSKNQVVLTMTNMDPVDTATYYCARGWYYFDYWGHGTLVTVSS VL: DIVMTQTPLSLPVTPGEPASISCRASKSISKYLAWYQQKPGQAPRLLIYSGSTLQSGIPPRFSGSGYGTDFTLTINNIESEDAAYYFCQQHDISPYTFGEGTKVEIK |
